The source of these data is US20250325718A1, “IMMUNOCONJUGATES COMPRISING KALLIKREIN RELATED PEPTIDASE 2 ANTIGEN BINDING DOMAINS AND THEIR USES” (Janssen Biotech, Inc., priority 2021, published 2025).

By Kd is commonly meant a measure of binding affinity in units of concentration.

Data set [1] is described as follows: Thermal stability by Differential Scanning Fluorimetry (NanoDSF). It is filed as physicochemical. The note with it: 0.5 mg/mL in Phosphate Buffered Saline pH 7.4, 20-95 ° C. at 1.0 ° C./minute. As to the method: Thermal stability was determined by Differential Scanning Fluorimetry (NanoDSF) using an automated Prometheus instrument. NanoDSF was used to measure Tm of molecules at a concentration of 0.5 mg/mL in Phosphate Buffered Saline, pH 7.4. Measurements were made by loading samples into 24 well capillary from a 384 well sample plate. Duplicate runs were performed for each sample. The thermal scans span from 20° C., to 95° C. at a rate of 1.0° C./minute. Intrinsic tryptophan and tyrosine fluorescence were monitored at the emission wavelengths of 330 nm and 350 nm, and the F350/F330 nm ratio were plotted against temperature to generate unfolding curves.
(In general: In DSF a fluorescence change marks the thermal transition of the protein.)

The next data set addresses soluble hK2 (Homo sapiens, UniProt P20151). Kind of data set: Affinity of hK2 antibodies for soluble hK2 by surface plasmon resonance (SPR). The class given is binding. The note with it: antibody captured on anti-Fc chip, soluble hK2 injected, 1:1 Langmuir fit, KD = koff/kon. As to the method: Affinity of selected hK2 antibodies for soluble hK2 was measured by surface plasmon resonance (SPR). SPR is a label-free technique to study the strength of an interaction between two binding partners by measuring the change in mass upon complex formation and dissociation. Antibodies were captured on a sensor chip coated with an anti-Fc antibody followed by injection of soluble hK2 at various concentrations and specified association and dissociation times. Post dissociation, the surface was regenerated with an appropriate solution to prepare for the next interaction. Kinetic information (on-rate and off-rate constants) were extracted by fitting sensorgrams to the 1:1 Langmuir model. Binding affinity (KD) are reported as the ratio of rate constants (koff/kon).
Background: SPR reads the build-up and loss of mass on a sensor chip optically.

A further data set deals with hK2-positive VCaP cells. Description: Target cell binding by flow cytometry, hK2-positive cells. The class given is cell-based. The note with it: 4° C. 60 minutes, anti-Human F(ab′)2 secondary detection, live cells. The text has this:
To evaluate target cell binding of the KL2B30 Fab with different conjugation variants, VCaP cells were used as hK2-positive target cells and DU145 cells were used as hK2-negative cells. KL2B30 parental antibody (comprising a heavy chain and light chain of SEQ ID NO: 210 and SEQ ID NO: 221, respectively) and hul1B6 (an anti-hK2 antibody, also referred to herein as h11B6, comprising a heavy chain and light chain of SEQ ID NO: 203 and SEQ ID NO: 215, respectively) were included as positive controls. The h11B6 antibody is described in U.S. Pat. No. 10,100,125, which is incorporated by reference herein. An anti-Human F(ab′)2 fragment specific secondary detection antibody was used for detecting Fab-based binding. Test antibodies were incubated with target cells at 4° C. for 60 minutes and detected by secondary staining. Cell binding was quantified by flow cytometry based on secondary antibody binding signal and gated from on live cells.
For orientation: Flow cytometry measures light scatter and fluorescence of single cells or particles in a stream.

Some results are limits rather than exact numbers.

Chain of soluble hK2 (P20151 25-261): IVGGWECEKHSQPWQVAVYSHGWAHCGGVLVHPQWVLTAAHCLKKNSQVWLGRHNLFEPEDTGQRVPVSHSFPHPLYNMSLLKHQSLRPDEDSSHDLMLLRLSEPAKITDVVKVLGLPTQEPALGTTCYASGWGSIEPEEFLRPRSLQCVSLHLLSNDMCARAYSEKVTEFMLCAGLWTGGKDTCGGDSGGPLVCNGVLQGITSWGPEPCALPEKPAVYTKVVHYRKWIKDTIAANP

B1: KL2B467 (Fab): anti-hK2 antibody from OmniRat immunization; VH SEQ ID NO: 168, VL SEQ ID NO: 169 (antibody, V domains shown)
VH: QVQLVESGGGVVQPGRSLRLSCAASGFTFSYYGMHWVRQAPGKGLEWVAFISYDGSNKYYADSVKGRFTISRDNSKNTLYLQMNSLRAEDTAVYYCAHLPYSGSYWAFDYWGQGTQVTVSS
VL: QSVLTQPPSVSVAPGQTASITCGGDNIGSKSVHWYQQKPGQAPVLVVYDNSDRPSGIPERFSGSNSGTTATLTISRVEAGDEADYYCQVWDSSSDHPVVFGGGTKVTV
On to B1, for which the “Tm (° C.)” value in data set [1] was >70 °C.

B2: KL2B242 (Fab): anti-hK2 antibody; VH SEQ ID NO: 166, VL SEQ ID NO: 167 (antibody, V domains shown)
VH: QVQLQESGPGLVKPSETLSLTCTVSGGSISSYYWSWLRQPAGSGLEWIGRLYVSGFTNYNPSLKSRVTLSLDPSRNQLSLKLSSVTAADTAVYYCAGDSGNYWGWFDPWGQGTLVTVSS
VL: SYELTQPPSVSVSPGETASITCSGDQLGENYACWYQQKPGQSPVLVIYQDSKRPSGIPERFSGSNSGNTATLTISGTQALDEADYYCQAWDNSIVVFGGGTKLTVL
On to B2, for which the “Tm (° C.)” value in data set [1] is >70 °C.

B3: KL2B53 (Fab): anti-hK2 antibody; VH SEQ ID NO: 164, VL SEQ ID NO: 165 (antibody, V domains shown)
VH: EVQLVESGGGVVQPGRSLRLSCVASGFTFSSYDIHWVRQAPGKGLEWVAIISYDGSKKDYTDSVKGRFTISRDNSKNTLYLQMDSLRVEDSAVYSCARESGWSHYYYYGMDVWGQGTMVTVSS
VL: DIVMTQSPSSLSASVGDRVTITCRASQDISNYLAWYQQKPGKVPKFLIYAASTLHSGVPSRFSGSGSGTDFTLTISSLQPEDVATYYCQKYNSAPYTFGQGTRLEIK
Regarding B3, the “Tm (° C.)” value in data set [1] was >70 °C.

B4: KL2B413 (scFv-LH-Fc): anti-hK2 antibody from Ablexis mice immunization; VH SEQ ID NO: 137, VL SEQ ID NO: 138 (protein)
chain 1: EVQLVESGGGLVQPGGSLRLSCAASGFTFSSYWMTWVRQAPGKGLEWVANIKQDGSERYYVDSVKGRFTISRDNAKNSLYLQMNSLRAEDTAVYYCARDQNYDILTGHYGMDVWGQGTTVTVSS
chain 2: EIVLTQSPSFLSASVGDRVTITCRASQGISSYLSWYQQKPGKAPKLLIYATSTLQSGVPSRFSGSGSGTEFTLTISSLQPEDFATYYCQQLNSYPRTFGQGTKVEIK
B4: the Kd with soluble hK2 was 34.3 nM; with soluble hK2 (listed as KL2B413 scFv) it was ~34 nM.

B5: KL2B997 SORT: KL2B997 site-specific ADC prepared via the sortase tag with Gly3-vcMMAF (conjugate)
heavy: QVQLQESGPGLVKPSETLSLTCTVSGGSISSYYWSWIRQPPGKGLEWIGYIYYSGSTNYNPSLKSRVTISVDTSKNQFSLKLSSVTAADTAVYYCAGTTIFGVVTPNFYYGMDVWGQGTTVTVSS
light: DIQMTQSPSFLSASVGDRVTITCRASQGISSYLAWYQQKPGKAPKFLIYAASTLQSGVPSRFSGSGSGTEFTLTISSLQPEDFATYYCQQLNSYPLTFGGGTKVEIK
modifications: left off: a dimerising Fc or GST; large carriers
notes: KL2B997 site-specific ADC prepared via the sortase tag with Gly3-vcMMAF
Take B5: in the data set with hK2-positive VCaP cells, the “cell binding to hK2-positive VCaP cells” value is “positive and dose-dependent cell binding”.

B6: KL2B359 (scFv-LH-Fc): anti-hK2 clone from the re-humanization campaign of 11B6; VH SEQ ID NO: 139, VL SEQ ID NO: 140 (protein)
scFv: EIVLTQSPATLSLSPGERATLSCRASESVEYFGTSLMHWYQQKPGQPPRLLIYAASNVESGIPARFSGSGSGTDFTLTISSVEPEDFAVYFCQQTRKVPYTFGGGTKVEIKGGSEGKSSGSGSESKSTGGSQVQLQESGPGLVKPSQTLSLTCTVSGNSITSDYAWNWIRQFPGKRLEWIGYISYSGSTTYNPSLKSRVTISRDTSKNQFSLKLSSVTAADTAVYYCATGYYYGSGFWGQGTLVTVSS
modifications: left off: a dimerising Fc or GST; small tags and cut ends
As for B6, in data set [1], the “Tm (° C.)” value stood at 67 °C.
